{
  "source": "paper PMC2978097",
  "about": "(2010)",
  "target": "α-synuclein (Homo sapiens, UniProt P37840)",
  "test": "fluorescence anisotropy",
  "data": [
    {"binder": "GVLWVGSKTR", "note": "[Y39W β-syn 36D]", "values": [
      {"measurement": "Kd", "result": "~1", "unit": "µM"}
    ]}
  ]
}
